# Results published in patent US20150079023A1.
# Target: CD16 (Fc receptor on NK cells) (human) (UniProt P08637)
# Experiment: cell-based or functional assay
# UniProt P08637, sequence (P08637 17-254): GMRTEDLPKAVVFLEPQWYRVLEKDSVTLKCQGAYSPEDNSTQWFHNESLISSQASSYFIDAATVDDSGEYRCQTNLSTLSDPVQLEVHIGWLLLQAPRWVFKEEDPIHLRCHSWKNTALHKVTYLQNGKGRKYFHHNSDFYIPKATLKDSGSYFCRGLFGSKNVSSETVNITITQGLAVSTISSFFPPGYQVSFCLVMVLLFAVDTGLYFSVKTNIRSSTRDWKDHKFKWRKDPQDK
substance,measurement,value
rituximab (antibody),"% of CD69+ cells among total NK cells, 7-day CLL PBMC culture, RTX 10 ug/mL (untreated median 35.75%)",65.2%
same,"median % of proliferating NK cells (CFSE dilution), 7-day CLL culture, antibody alone",14.8%
same,"median % of proliferating NK cells (CFSE dilution), 7-day CLL culture, antibody plus IL-15 10 ng/mL (IL-15 alone 42.25%)",53.8%
same,"median % of viable CD19+/CD5+ B leukemic cells compared to untreated, 7 days, antibody alone",79.5%
same,"median % of viable CD19+/CD5+ B leukemic cells compared to untreated, 7 days, antibody plus IL-15 10 ng/mL",50.4%
